assay: soluble on expression in E. coli; label from the status in PepcDB or PDB records

Row | Sequence | soluble on expression in E. coli
1 | EAQTRVKLNFLDQIAKYWELQGSTLKIPHVERKILDLFQLNKLVAEEGGFAVVCKDRKWTKIATKMGFAPGKAVGSHIRGHYERILNPYNLFLSGDSLRCLQKPNLTSDTKDKEY | soluble
2 | EDGYDMWLRYQPIADQTLLKTYQKQIRHLHVAGDSPTINAAAAELQRGLSGLLNKPIVARDEKLKDYSLVIGTPDNSPLIASLNLGERLQALGAEGYLLEQTRINKRHVVIVAANSDVGVLYGSFHLLRLIQTQHALEKLSLSSAPRLQHRVVNHWDNLNRVVERGYAGLSLWDWGSLPNYLAPRYTDYARINASLGINGTVINNVNADPRVLSDQFLQKIAALADAFRPYGIKMYLSINFNSPRAFGDVDTADPLDPRVQQWWKTRAQKIYSYIPDFGGFLVKADSEGQPGPQGYGRDHAEGANMLAAALKPFGGVVFWRAFVYHPDIEDRFRGAYDEFMPLDGKFADNVILQIKNGPIDFQPREPFSALFAGMSRTNMMMEFQITQEYFGFATHLAYQGPLFEESLKTETHARGEGSTIGNILEGKVFKTRHTGMAGVINPGTDRNWTGHPFVQSSWYAFGRMAWDHQISAATAADEWLRMTFSNQPAFIEPVKQMMLVSREAGVNYRSPLGLTHLYSQGDHYGPAPWTDDLPRADWTAVYYHRASKTGIGFNRTKTGSNALAQYPEPIAKAWGDLNSVPEDLILWFHHLSWDHRMQSGRNLWQELVHKYYQGVEQVRAMQRTWDQQEAYVDAARFAQVKALLQVQEREAVRWRNSCVLYFQSVAGRPIPANYEQPEHDLEYYKMLARTTYVPEPWHPASSSRVLK | soluble
3 | EDLGYFCVDNLPPSLLPKFLELMKESNSKMSKVALVMDLRGREFFDRLIEALDEMAENPWITPRILFLDAKDSILVTRYKETRRSHPLAATGLPLEGIALERELLEELKGRSQIIYDTSDMKPRDLREKIVKHFATNQGETFTVNVMSFGFKYGIPIDADLVFDVRFLPNPYYIESMRPLTGKDKEVSSYVMKWNETQKFNEKLIDLLSFMLPSYKREGKSQVVIAIGCTGGQHRSVTLAENLADYFKKDYYTHVTHRDIEKR | not soluble
4 | EELEYKGMNTLQISNVDDLISFYQYADDRIPLISGHRGGRGKGYPENSMETFENTLSYTPATFEIDPRLTKDSVIVLFHDDTLERTSNGTGKVSDYTWEELQNFRLKDPEGNITNYRIPTLEEAIRWARGKTILILDKKDVPMERTAQLITDMQAEPYVMITVHDGASARFFYEKNPNFMFEAFVKTKEAVQDYEDNGIPWSHIMAYVGPKITPEVREVIDMLHERGVMCMISTAPSDDKLSTPESRAEAYRMIIRQGVDIIESDRPIEVAEAISSLIPVSSSKGKFFSTL | soluble
5 | EEQPRLFELLGQPGYKATWHAMFKGESDVPKWVSDASGPSSPSTSLSLEGQPYVLANSCKPHDCGNNRLLVAFRGDKSAAYGLQVSLPDEPAEVMQTPSKYATYRWYGEPSRQVRELLMKQLESDPNWKLEHHHHHH | soluble
6 | EERRVAYPVLRELTERTGETSALMVWNGNESMCVEQIPSRHQVKHLAPLGARYNEALSSSVQVFLASENEDRVRQLLRSGSITLTGVDEDAVEAYLLRLKESMERGWAVNFGETSIEEVGVASPVYDHRGNMVASVLIPAPKFRVSQDTLNSLGEACAAAAAKVTTRLGGRAPH | soluble
7 | EFELKDFHVDYSISHPQSQHIQIIVCFKAQDKHEANAGRYRRIKPAWCTTEDGEHVIYYRISASRVDHDITTKYAFLDRDGKPKQIHHSEKLAVELMTLHPVIRLRDSRRFPRPSHINGDSKNARIEKRINNTCRRLLAMPGHVNKGEIRSSLDAMKTLVEHYFAFRSIGKGNPRKPRDGLFYTSPSSDKGLSQYLKETNDKQSRLLLMGLLSAYLQAKGPTDLRRCARPILIIEDPEGRLHPTHLARAWSLLQLLPMQK | not soluble
8 | EFIHGVYVDTSLHRNFVNLQQASLMAEGGVTGGISLLRNLRTSGNDQGLQQLLADPVQFEDEKGRVSITIEEEDGKLNLNAVTLPNGDEHVFYGPAERRLLTALKLPTALHDSLADWLDANDEPRPDGGESAYYQSLSAPYAPRNAPFATFGELGLVRGVEPAVLERLRPFATVFVDGGAINVNTAPLQVLMALDEGISEGIARDIMQRRRIKPFKSVGELSEIPGMETIAGKLSGFAGARGSTYRLVSRAAVGDVTRLVEAVVNLDGTQPRYLY | not soluble
9 | EGDIHMSLSHPPIPILELADHIERLKANDNLKFSQEYESIDPGQQFTWEHSNLEVNKPKNRYANVIAYDHSRVLLSAIEGIPGSDYVNANYIDGYRKQNAYIATQGSLPETFGDFWRMIWEQRSATVVMMTKLEERSRVKCDQYWPSRGTETHGLVQVTLLDTVELATYCVRTFALYKNGSSEKREVRQFQFTAWPDHGVPEHPTPFLAFLRRVKTCNPPDAGPMVVHCSAGVGRTGCFIVIDAMLERIKHEKTVDIYGHVTLMRAQRNYMVQTEDQYIFIHDALLEAVTCGNTEVPARNLYAYIQKLTQIETGENVTGMELEFKRLASSKAHTSRFISANLPCNKFKNRLVNIMPYESTRVCLQPIRGVEGSDYINASFLDGYRQQKAYIATQGPLAETTEDFWRMLWEHNSTIVVMLTKLREMGREKCHQYWPAERSARYQYFVVDPMAEYNMPQYILREFKVTDARDGQSRTVRQFQFTDWPEQGVPKSGEGFIDFIGQVHKTKEQFGQDGPISVHCSAGVGRTGVFITLSIVLERMRYEGVVDIFQTVKMLRTQRPAMVQTEDQYQFCYRAALEYLGSFDHYATEGHHHHHH | not soluble
10 | EHAPATTGPLPSAPRDVVASLVSTRFIKLTWRTPASDPHGDNLTYSVFYTKEGIARERVENTSHPGEMQVTIQNLMPATVYIFRVMAQNKHGSGESSAPLRVETQPE | soluble
11 | EHIKQKNSEIAELTLQNQRDADSVEYYKALVSQDEKQKVLIHDIKKHLNAIASLNEQHDSEKIAAYLTHVLGSSELKHSVRVCDNDLLNALLCRYQKICLTKKIALHIDIRSKCIDFVTYDDLSVLFGNLMDNAVESAEKTVNPFIELNVFHKENNNMTIITLIDSCRVNPIDKNGNLLPTKKPNPQFHGFGMRSIENIVKKYNGEMTFYFDDPTKTFHTIIMLRH | not soluble
12 | EILAKDQEAFMQSAKFLKEGKILAIKGIGGFHLMCDAFNEEALKTLRLRKNRPKKPFALMCKDLQSAKELAFIDEKEEALLGGVLAPIVILKAKKAFSLIAPDVDKIGIMLAYTPLHLLLFEYFKGSLVATSANLSGESIIKDEFNLCKKLDKVFDFYLDYDREIINASDDSIAQVVNGETMFLRTSR | not soluble
13 | EIQLQQSGPELVKPGASVKVSCKASGYSFTDYFIYWVKQSHGKSLEWIGDIDPYNGDTSYNQKFRDKATLTVDQSSTTAFMHLNSLTSEDSAVYFCARGLRFWGQGTLVTVSAAKTTPPSVYPLAPGSAAQTNSMVTLGCLVKGYFPEPVTVTWNSGSLSSGVHTFPAVLQSDLYTLSSSVTVPSSTWPSETVTCNVAHPASSTKVDKKIVPRDCG | soluble
14 | EIQMTQTTSSLSASLGDRVTISCRASQDISNFLNWYQQKPDGTVKLLIYYTSTLHSGVPSRFSGSGSGTDYSLTISNLEQEDIATYFCQQGKTLPPTFGGGTKLEIKRADAAPTVSIFPPSSEQLTSGGASVVCFLNNFYPKEINVKWKIDGSERQNGVLDSWTEQDSKDSTYSMSSTLTLTKDEYERHNSYTCEATHKTSTSPIVKSFNRNEC | soluble
15 | EIRVFETAPEGLKILKDSEVVINTTTKEVAKNNQFSVSDASGTYNMVNDVKVG | soluble
16 | EITPLIFQKQTTEEVQNLKPYTALQLEGRDIYIREGCNVCHSQMVRPFRSETERYGHYSVAGESVWEHPFLWGSKRTGPDLARVGGRYSDEWHRVHLLNPRELVPESNMPAFPWLAKNTLDGKYTQQKMTLFRDKFGVPYTDEQIANATKDVEGKTEMDAIIAYLQSLGHAMK | not soluble
17 | EKELLDNFKKNITQYAKQLEISIEKVYDEKGSVNAQKDIQNLLSEYANRQEIGEIRFIDKDQIIIATTKQSNRSLINQKANDSSVQKALSLGQSNDHLILKDYGGGKDRVWVYNIPVKVDKKVIGNIYIESKINDVYNQLNNINQ | not soluble
18 | ELASDVYNKRIWIKDMQADKGKVQLMKGLYWYFDKDPHLLLGGGTGGGKTFTILSLIYALCRVGEMEICDPKNSDLMALGKLPMFAGKVHTGKTDIVNCLKNAVELMNARFEMMNNSPDYKMGKNYAYYGLKPKFIVIDEFAAFKAELANDYSTDGEVDEYLTQLILKARQCGIFLIVAMQRPDG | not soluble
19 | ELQVLDTWQGDVVRDTKTLSGGESFLVSLALALALSDLVSHKTSIDSLFLDEGFGTLDSETLDMALDALDNLNASGKMIGVISHIEAMKERIPVQIKVTKRSGLGVSELEKQYKKVS | not soluble
20 | ELYGASPDIDLGTGPTPTLGPVTPEICKQDIVFDGIAQIRGEIFFFKDRFIWRTVTPRDKPMGPLLVATFWPELPEKIDAVYEAPQEEKAVFFAGNEYWIYSASTLERGYPKPLTSLGLPPDVQRVDAAFNWSKNKKTYIFAGDKFWRYNEVKKKMDPGFPKLIADAWNAIPDNLDAVVDLQGGGHSYFFKGAYYLKLENQSLKSVKFGSIKSDWLGC | soluble
21 | EMDRRAALSGAAGAFMAACDEAVRELLLAMNFSDHDAEAIITGAAPPQLEHAASGVVSLVLRLKSSVLSHYIKHLNNAAARSQAAAASTAAVDGNAEDAADKHGAKATSAAKAPPAAGGGAGDAADQQLSTGEACLVQLQLYGGVGDALLQLLRSKLRGSACQLWALAHIVHPHPSRSEKESLAAYTGKSTKQVTDWFTNWRARHWRPAIMALQKGAAGGAAGGSLG | soluble
22 | EMGTADLGPSSVPTPTNVTIESYNMNPIVYWEYQIMPQVPVFTVEVKNYGVKNSEWIDACINISHHYCNISDHVGDPSNSLWVRVKARVGQKESAYAKSEEFAVCRDGKIGPPKLDIRKEEKQIMIDIFHPSVFVNGDEQEVDYDPETTCYIRVYNVYVRMNGSEIQYKILTQKEDDCDEIQCQLAIPVSSLNSQYCVSAEGVLHVWGVTTEKSKEVCITIFNSSIKGSLWIPVVAALLLFLVLS | soluble
23 | EMTDLQSTHKNFLFEIEEVGIKNLTYPVLIDQYQTAGLFSFSTSLNKNEKGINMSRILESVEKHYDNGIELEFNTLHQLLRTLQDKMNQNAAGVDVSGKWFFDRYSPVTNIKAVGHADVTYGLAIENHTVTRKELTIQAKVTTLCPCSKEISEYSAHNQRGIVTVKAYLDKNNDVIDDYKDKILDAMEANASSILYPILKRPDEKRVTERAYENPRFVEDLIRLIAADLVEFDWIEGFDIECRNEESIHQHDAFARLKYRK | not soluble
24 | EMYHHKKVLVLGLARSGVSAATIMHKLGAFVTVNDQKPFSENPEAQGLLEQGIKVICGSHPIELLDEGFELVIKNPGIPYNNPMIEKALKLKIPVI | not soluble
25 | EPEEEQITVLENGSWLIDGDTPVNKLKYVLSVDSFPGEEQGYYLTIAGLIMYILQRIPKTGDHMEFNGLRYEVVDMDGIRIDKVMVTKVP | soluble
26 | EPIVTVYVAYGGLDLIAEEFEKDTGIKMEYVSLSSGEALSRLKAEQSNPSADVWLGGGIDAFISAQNDGLLEAYKSPNAEEIDPLFVEENGYWIGVSLVTIGILENTDLMTEKGLPEPETWDDLITEDYSGELIASNPTVSGTAYFTICGILQMNGEEEGWNYLDKFYQNTPFLTKRGSGPGNLVTAGEYAYGVAPDPHTTLIANSELPVKSVFLDNVIWWPSPVSIVNGAKHPENAKIFVDWCLSKEGQEVLMQASPRVPVRGDI | not soluble

From the DeepSol protein solubility set
